Where “and” joins values, the source holds several entries; their conditions need not be identical. Equal entries are not always repeated.

Assay [1] deals with Exchange protein directly activated by cAMP 1 (EPAC1), recombinant full-length wild-type EPAC1B (human). In words: MST; EPAC1-cAMP and Rap1; no further conditions told.
For assay [2] the target is unchanged. In words: SAXS; EPAC1 with 1 mM cAMP, no Rap1b, 2.7 mg/mL, 10 mM Tris pH 9, 1 mM EDTA, 10 mM DTT, 500 mM NaCl; monomer to dimer.

Chain of C-terminally truncated Rap1b (1-167) (P61224 1-167): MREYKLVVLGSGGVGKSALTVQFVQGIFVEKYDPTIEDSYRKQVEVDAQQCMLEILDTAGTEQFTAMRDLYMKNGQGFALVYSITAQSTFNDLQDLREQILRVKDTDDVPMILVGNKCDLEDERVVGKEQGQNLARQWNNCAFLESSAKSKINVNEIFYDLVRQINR

Turning to “C-terminally truncated Rap1b (1-167) (from UniProt P61224 1-167) (domain or fragment)”, in assay [1], the Kd lay within 20 to 60 nM. On to “Exchange protein directly activated by cAMP 1 (EPAC1), recombinant full-length wild-type EPAC1B (natural protein)”, for which, in assay [2], the percent monomer in solution (EOM/polydispersity analysis) was in the range of 5 to 15%; the stoichiometry N was 1.8 and 2.4 and 2.2.
